Test [1] concerns the target T1, Recombinant CHIKV E2 ectodomain protein (corresponding to the CHIKV-LR2006 strain) (Chikungunya virus strain LR2006).
T1 construct: extracellular domain; also called CHIKV-LR2006 E2 ectodomain; purified E2 protein
The test is described as follows: ELISA on coated E2 ectodomain, mAb at 10 µg/mL.

In another test the target is T2, Recombinant CHIKV p62-E1 (Chikungunya virus).
T2 construct: also called soluble CHIKV p62-E1; monomeric E1 protein
In words: SPR (Biacore T100), IgG captured on anti-human IgG, p62-E1 injected.

Residue numbers refer to the chain shown, from its start.

B1: human mAb 4J21 (antibody, V domains shown)
VH: QVQLVQSGSELKKPGASVKVSCKASGYSFTSYSINWVRQAPGQGPEWMGWIDTNTGNPTYAQDFAGRFVFSLDTSVTTAYLQISSLKAGDTAVYYCATYYVDLWGSYRQDYYGMDVWGHGTLVTVSS
VL: QSVVTQPPSVSGTPGQGVTISCSGGSSNIGSNPVNWYQMVPGTAPKLLLYTNNQRPSGVPDRFSGSKSGTSASLAINGLQSEDEADYYCAVWDDSLSGRWVFGGGTKLTVL
With B1, the OD450 in test [1] lay in the range of 0.5 to 0.99 od. Moreover, in the test with Recombinant CHIKV p62-E1, the t1/2 was determined as 186 min.

B2: human mAb 2B4 (antibody, V domains shown)
VH: QVQLVQSGSELKKPGASVKVSCKASGYSFTSYSINWVRQAPGQGPEWMGWIDTNTGNPTYAQDFAGRFVFSLDTSVTTAYLQISSLKAGDTAVYYCATYYVDLWGSYRQDYYGMDVWGH
VL: B1 VL with V4L, V10A, G17R, L108V
Take B2: the OD450 in test [1] was in the range of 0.5 to 0.99 od.

B3: human mAb 5O14 (antibody, V domains shown)
VH: QVQLVQSGGRVVQAGRSLRLSCAASGFTFSMYGVHWVRQAPGKGLEWVAVIWNDGSKEYYGDSVKGRFTISRDNSRNTLYLQMNSLRVDDTAVYFCARDGIPDPERGDYGGLDYWGQGTLVTVSS
VL: QTVVTQFPSSPFASVGDGVTITCRARQSISSYVNWYQQKPGKAPKLLIYATSSLQSGVPSRFSGSGYGTDFTLTISGLQPEDFATYYCQQSYSFPRTFGQGTKVEIK
For the molecule B3, in test [1], the OD450 was > 1 od. Besides, in the test with Recombinant CHIKV p62-E1, the Kd was determined as 1.15 nM, the koff is 0.000911 s⁻¹, the association rate constant (kon) was determined as 790000 M⁻¹ s⁻¹ and the t1/2 stood at 13 min.

B4: human mAb 2C2 (antibody, V domains shown)
VH: QVQLVQSGGGLVQPGRSLTLSCAASGFTFDVYAMHWVRQAPGKGLEWVAGISWNSGSVGYADSMKGRFTISRDNAKNSLYLQINSLRAEDTALYYCAKAFWFGELSGYGMDVWGQGTLVTVSS
VL: QAVVTQPPSASGFPGQSVTISCTGTSSDVGSYNYVSWYQQHPGKAPKLIIYAVTRRPSGVPERFSGSKSGNTASLTVSGLQAEDEADYYCTSYAGNNKDVFGTGTKVTVL
Consider B4, for which, in the test with Recombinant CHIKV p62-E1, the t1/2 is 19 min.

These data come from patent publication US20200277359A1 (published 2020).
